These results are taken from US20220098307A1 (WUHAN YZY BIOPHARMA, published 2022).

One test addresses T1, Human CD3ε (human, UniProt P07766 23-126).
T1 construct: CD3 on T cells isolated from human whole blood
Put plainly: flow cytometry, human T cells. Summed up: (§1)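 Cells expressing the target antigen (CD38+ MM.1S or RPMI 8226 for CD38; isolated T cells for CD3) were plated at 2×10⁵ per well in 1% FBS-PBS on ice. Antibody was titrated 3-fold over 11 points from 3000 nM and incubated 2 h at 4° C with shaking, followed by PE anti-human IgG Fc.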
For orientation: In flow cytometry, cells or beads pass a laser one at a time.

The target of another test is T2, human CEA (human, UniProt P06731 35-685).
T2 sequence: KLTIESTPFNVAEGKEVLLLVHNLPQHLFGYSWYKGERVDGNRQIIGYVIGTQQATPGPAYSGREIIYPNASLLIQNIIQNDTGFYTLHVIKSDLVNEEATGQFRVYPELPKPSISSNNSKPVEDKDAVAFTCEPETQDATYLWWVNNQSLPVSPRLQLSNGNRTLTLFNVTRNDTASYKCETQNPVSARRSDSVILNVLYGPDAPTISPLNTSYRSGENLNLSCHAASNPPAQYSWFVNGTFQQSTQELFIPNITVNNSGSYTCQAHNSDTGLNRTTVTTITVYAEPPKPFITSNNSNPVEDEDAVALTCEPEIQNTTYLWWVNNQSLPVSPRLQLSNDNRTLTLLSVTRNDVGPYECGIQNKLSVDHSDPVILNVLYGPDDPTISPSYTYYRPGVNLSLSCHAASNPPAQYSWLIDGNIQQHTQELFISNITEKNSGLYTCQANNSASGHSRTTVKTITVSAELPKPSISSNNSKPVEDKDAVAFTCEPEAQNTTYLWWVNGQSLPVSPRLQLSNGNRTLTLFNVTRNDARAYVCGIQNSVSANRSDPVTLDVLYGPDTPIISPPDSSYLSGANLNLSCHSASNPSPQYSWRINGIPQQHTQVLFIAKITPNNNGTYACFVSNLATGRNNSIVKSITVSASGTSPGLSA
The experiment in a line: flow cytometry, human tumor cells (table of the CEA series). In short, it runs like this:
as §1

Another test addresses T3, Monkey CD3 (monkey).
T3 construct: whole, on cells; also called CD3 of monkey CD3 positive T cells
The experiment in a line: flow cytometry, monkey T cells.

Another test deals with T4, Human BCMA (human, UniProt Q02223 1-54).
T4 sequence: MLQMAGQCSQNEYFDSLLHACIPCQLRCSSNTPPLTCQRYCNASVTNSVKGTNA
Put plainly: flow cytometry, human tumor cells (BCMA+). The source says:
1) Cell preparation: T cells isolated from CD3-positive human whole blood were used for a CD3 end affinity detection of multifunctional antibody molecule; positive tumor cells of corresponding antigen were used for detecting affinity of tumor antigen; for example, CD38-positive MM. 1S cells (purchased from the Cell Resource Center of Shanghai Institutes for Biological Sciences, Chinese Academy of Sciences) or RPMI 8226 cells (purchased from the Cell Resource Center of Shanghai Institutes for Biological Sciences, Chinese Academy of Sciences) were used for CD38 antigen detection, and PD-L1 positive H358 cells (purchased from the Cell Resource Center of Shanghai Institutes for Biological Sciences, Chinese Academy of Sciences) were used for PD-L1 antigen detection, and so on. The cells were resuspended with 1% FBS-PBS, adjusted to a density of 4×10⁶/ml, and 50 μl of cells were taken from each well, and then plated at 2×10⁵ per well. Cell plating was operated on ice
2) Addition of the antibody: according to the experimental design, the antibody was diluted gradually, and dilution of antibody was operated on ice. For example, the initial concentration of antibody for dilution was 3000 nM, and the antibody was diluted by 3 times with 11 concentration gradients. The diluted antibody was added to a cell well at 50 μl per well, mixed well, and shaked and incubated at 4° C. 1100 rpm/min for 2 h; after washing, the cells were resuspend in 1% FBS-PBS, and a diluted secondary antibody PE anti-human IgG FC (Biolegend, 409304) was added with a final concentration of 8 ug/ml and a volume of 50 μl/well. At the same time, a well only added with cells and secondary antibody was set as a control, the components were mixed well, and incubated under shaking at 1100 rpm/min at 4° C. for 1 h;
5) Data analysis: the data was analyzed by a flow analysis software FlowJo 7.6 thereby obtaining an average fluorescence intensity of the specific antibody concentration, plotted by a Graphpad Prism 5 with the antibody concentration (nM) as an abscissa and the average fluorescence intensity as an ordinate; the EC50 value was calculated by the method of One site—Specific binding, and the EC50 value indicated the cell affinity of the antibody to the corresponding target antigen.

Changes are numbered by the printed parent chain.

B1: M3IC-SG2 (bispecific antibody)
chain 1: EVKLDETGGGLVQPGRPMKLSCVASGFTFSDYWMNWVRQSPEKGLEWVAQIRNKPYNYETYYSDSVKGRFTISRDDSKSSVYLQMNNLRVEDMGIYYCTGSYYGMDYWGQGTSVTVSSASTKGPSVFPLAPSSKSTSGGTAALGCLVKDYFPEPVTVSWNSGALTSGVHTFPAVLQSSGLYSLSSVVTVPSSSLGTQTYICNVNHKPSNTKVDKKVEPKSCGGGGSGGGGSQVQLVESGGGVVQPGRSLRLSCAASGFTFSTYAMNWVRQAPGKGLEWVARIRSKYNNYATYYADSVKDRFTISRDDSKNTLYLQMNSLRAEDTAVYYCARHGNFGNSYVSWFAYWGQGTLVTVSSASVAAPSVFIFPPSDEQLKSGTASVVCLLNNFYPREAKVQWKVDNALQSGNSQESVTEQDSKDSTYSLSSTLTLSKADYEKHKVYACEVTHQGLSSPVTKSFNRGECDKTHTCPPSPAPPVAGPSVFLFPPKPKDTLMISRTPEVTCVVVDVSHEDPEVQFNWYVDGVEVHNAKTKPREEQFNSTFRVVSVLTVVHQDWLNGKEYKCKVSNKGLPAPIEKTISKTKGQPREPQVYTLPPCRDELTKNQVSLWCLVKGFYPSDIAVEWESNGQPENNYKTTPPVLDSDGSFFLYSKLTVDKSRWQQGNVFSCSVMHEALHNHYTQKSLSLSPGK
chain 2: QTVVTQEPSLTVSPGGTVTLTCRSSTGAVTTSNYANWVQQKPGQAPRGLIGGTNKRAPGVPARFSGSLLGGKAALTLSGVQPEDEAEYYCALWYSNLWVFGGGTKVEIKSSASTKGPSVFPLAPSSKSTSGGTAALGCLVKDYFPEPVTVSWNSGALTSGVHTFPAVLQSSGLYSLSSVVTVPSSSLGTQTYICNVNHKPSNTKVDKKVEPKSC
heavy: EVKLDETGGGLVQPGRPMKLSCVASGFTFSDYWMNWVRQSPEKGLEWVAQIRNKPYNYETYYSDSVKGRFTISRDDSKSSVYLQMNNLRVEDMGIYYCTGSYYGMDYWGQGTSVTVSSASTKGPSVFPLAPSSKSTSGGTAALGCLVKDYFPEPVTVSWNSGALTSGVHTFPAVLQSSGLYSLSSVVTVPSSSLGTQTYICNVNHKPSNTKVDKKVEPKSCDKTHTCPPSPAPPVAGPSVFLFPPKPKDTLMISRTPEVTCVVVDVSHEDPEVQFNWYVDGVEVHNAKTKPREEQFNSTFRVVSVLTVVHQDWLNGKEYKCKVSNKGLPAPIEKTISKTKGQPREPQVCTLPPSRDELTKNQVSLSCAVKGFYPSDIAVEWESNGQPENNYKTTPPVLDSDGSFFLVSKLTVDKSRWQQGNVFSCSVMHEALHNRFTQKSLSLSPGK
light: DVVMTQTPLSLPVSLGDQASISCRSSQSLVHSNGNTYLRWYLQKPGQSPKVLIYKVSNRFSGVPDRFSGSGSGTDFTLKISRVEAEDLGVYFCSQSTHVPWTFGGGTKLEIKRTVAAPSVFIFPPSDEQLKSGTASVVCLLNNFYPREAKVQWKVDNALQSGNSQESVTEQDSKDSTYSLSSTLTLSKADYEKHKVYACEVTHQGLSSPVTKSFNRGEC
notes: structure 3 isotype control; CH2 SG2CH2
Broadly, the EC50 is the concentration that produces a half-maximal response. B1 gave an EC50 with Human CD3ε of 677 nM. Besides, in the test with human CEA, the binding result is listed as “no binding”.

B2: BCMA-M2-WT (bispecific antibody, human IgG1, kappa)
chain: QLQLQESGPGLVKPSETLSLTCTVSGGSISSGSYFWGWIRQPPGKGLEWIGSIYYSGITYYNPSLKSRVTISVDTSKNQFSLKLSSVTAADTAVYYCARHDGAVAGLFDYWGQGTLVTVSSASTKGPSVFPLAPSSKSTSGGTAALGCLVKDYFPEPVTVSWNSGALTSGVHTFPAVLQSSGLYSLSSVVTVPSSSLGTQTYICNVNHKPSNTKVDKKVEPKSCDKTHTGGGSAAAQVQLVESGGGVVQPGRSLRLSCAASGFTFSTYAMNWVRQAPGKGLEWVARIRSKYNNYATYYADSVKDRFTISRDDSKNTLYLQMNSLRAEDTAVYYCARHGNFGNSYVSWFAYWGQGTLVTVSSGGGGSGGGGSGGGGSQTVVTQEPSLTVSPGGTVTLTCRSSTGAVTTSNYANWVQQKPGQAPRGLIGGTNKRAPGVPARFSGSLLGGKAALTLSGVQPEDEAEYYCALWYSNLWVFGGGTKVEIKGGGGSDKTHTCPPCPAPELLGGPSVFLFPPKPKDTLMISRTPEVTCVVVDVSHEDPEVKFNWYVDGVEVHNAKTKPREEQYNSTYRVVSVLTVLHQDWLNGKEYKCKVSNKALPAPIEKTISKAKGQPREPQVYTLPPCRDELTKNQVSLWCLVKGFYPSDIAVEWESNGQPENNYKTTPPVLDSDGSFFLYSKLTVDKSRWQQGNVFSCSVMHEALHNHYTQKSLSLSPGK
heavy: QLQLQESGPGLVKPSETLSLTCTVSGGSISSGSYFWGWIRQPPGKGLEWIGSIYYSGITYYNPSLKSRVTISVDTSKNQFSLKLSSVTAADTAVYYCARHDGAVAGLFDYWGQGTLVTVSSASTKGPSVFPLAPSSKSTSGGTAALGCLVKDYFPEPVTVSWNSGALTSGVHTFPAVLQSSGLYSLSSVVTVPSSSLGTQTYICNVNHKPSNTKVDKKVEPKSCDKTHTCPPCPAPELLGGPSVFLFPPKPKDTLMISRTPEVTCVVVDVSHEDPEVKFNWYVDGVEVHNAKTKPREEQYNSTYRVVSVLTVLHQDWLNGKEYKCKVSNKALPAPIEKTISKAKGQPREPQVCTLPPSRDELTKNQVSLSCAVKGFYPSDIAVEWESNGQPENNYKTTPPVLDSDGSFFLVSKLTVDKSRWQQGNVFSCSVMHEALHNRFTQKSLSLSPGK
light: SYVLTQPPSVSVAPGQTARITCGGNNIGSKSVHWYQQPPGQAPVVVVYDDSDRPSGIPERFSGNSNGNTATLTISRVEAGDEAVYYCQVWDSSSDHVVFGGGTKLTVLRTVAAPSVFIFPPSDEQLKSGTASVVCLLNNFYPREAKVQWKVDNALQSGNSQESVTEQDSKDSTYSLSSTLTLSKADYEKHKVYACEVTHQGLSSPVTKSFNRGEC
notes: structure 2 (fusion peptide 2, heavy, two light chains); BCMA x CD3; CH2 WT
For the molecule B2, the EC50 with Human CD3ε was 588 nM; with Monkey CD3 it was 676 nM; with Human BCMA, 20.3 nM.

B3: BCMA-M2-G2 (bispecific antibody, human IgG1, kappa)
chain: QLQLQESGPGLVKPSETLSLTCTVSGGSISSGSYFWGWIRQPPGKGLEWIGSIYYSGITYYNPSLKSRVTISVDTSKNQFSLKLSSVTAADTAVYYCARHDGAVAGLFDYWGQGTLVTVSSASTKGPSVFPLAPSSKSTSGGTAALGCLVKDYFPEPVTVSWNSGALTSGVHTFPAVLQSSGLYSLSSVVTVPSSSLGTQTYICNVNHKPSNTKVDKKVEPKSCDKTHTGGGSAAAQVQLVESGGGVVQPGRSLRLSCAASGFTFSTYAMNWVRQAPGKGLEWVARIRSKYNNYATYYADSVKDRFTISRDDSKNTLYLQMNSLRAEDTAVYYCARHGNFGNSYVSWFAYWGQGTLVTVSSGGGGSGGGGSGGGGSQTVVTQEPSLTVSPGGTVTLTCRSSTGAVTTSNYANWVQQKPGQAPRGLIGGTNKRAPGVPARFSGSLLGGKAALTLSGVQPEDEAEYYCALWYSNLWVFGGGTKVEIKGGGGSDKTHTCPPCPAPPVAGPSVFLFPPKPKDTLMISRTPEVTCVVVDVSHEDPEVQFNWYVDGVEVHNAKTKPREEQFNSTFRVVSVLTVVHQDWLNGKEYKCKVSNKGLPAPIEKTISKTKGQPREPQVYTLPPCRDELTKNQVSLWCLVKGFYPSDIAVEWESNGQPENNYKTTPPVLDSDGSFFLYSKLTVDKSRWQQGNVFSCSVMHEALHNHYTQKSLSLSPGK
heavy: QLQLQESGPGLVKPSETLSLTCTVSGGSISSGSYFWGWIRQPPGKGLEWIGSIYYSGITYYNPSLKSRVTISVDTSKNQFSLKLSSVTAADTAVYYCARHDGAVAGLFDYWGQGTLVTVSSASTKGPSVFPLAPSSKSTSGGTAALGCLVKDYFPEPVTVSWNSGALTSGVHTFPAVLQSSGLYSLSSVVTVPSSSLGTQTYICNVNHKPSNTKVDKKVEPKSCDKTHTCPPCPAPPVAGPSVFLFPPKPKDTLMISRTPEVTCVVVDVSHEDPEVQFNWYVDGVEVHNAKTKPREEQFNSTFRVVSVLTVVHQDWLNGKEYKCKVSNKGLPAPIEKTISKTKGQPREPQVCTLPPSRDELTKNQVSLSCAVKGFYPSDIAVEWESNGQPENNYKTTPPVLDSDGSFFLVSKLTVDKSRWQQGNVFSCSVMHEALHNRFTQKSLSLSPGK
light: B2 light
notes: structure 2; BCMA x CD3; CH2 G2CH2
As for B3, the EC50 in the test with Human CD3ε was 515 nM; with Monkey CD3, 591 nM; with Human BCMA, 19.1 nM.

B4: BCMA-M2-FES (bispecific antibody, human IgG1, kappa)
chain: QLQLQESGPGLVKPSETLSLTCTVSGGSISSGSYFWGWIRQPPGKGLEWIGSIYYSGITYYNPSLKSRVTISVDTSKNQFSLKLSSVTAADTAVYYCARHDGAVAGLFDYWGQGTLVTVSSASTKGPSVFPLAPSSKSTSGGTAALGCLVKDYFPEPVTVSWNSGALTSGVHTFPAVLQSSGLYSLSSVVTVPSSSLGTQTYICNVNHKPSNTKVDKKVEPKSCDKTHTGGGSAAAQVQLVESGGGVVQPGRSLRLSCAASGFTFSTYAMNWVRQAPGKGLEWVARIRSKYNNYATYYADSVKDRFTISRDDSKNTLYLQMNSLRAEDTAVYYCARHGNFGNSYVSWFAYWGQGTLVTVSSGGGGSGGGGSGGGGSQTVVTQEPSLTVSPGGTVTLTCRSSTGAVTTSNYANWVQQKPGQAPRGLIGGTNKRAPGVPARFSGSLLGGKAALTLSGVQPEDEAEYYCALWYSNLWVFGGGTKVEIKGGGGSDKTHTCPPCPAPEFEGGPSVFLFPPKPKDTLMISRTPEVTCVVVDVSHEDPEVKFNWYVDGVEVHNAKTKPREEQYNSTYRVVSVLTVLHQDWLNGKEYKCKVSNKALPASIEKTISKAKGQPREPQVYTLPPCRDELTKNQVSLWCLVKGFYPSDIAVEWESNGQPENNYKTTPPVLDSDGSFFLYSKLTVDKSRWQQGNVFSCSVMHEALHNHYTQKSLSLSPGK
heavy: B2 heavy with L238F, L239E, P335S
light: B2 light
notes: structure 2; BCMA x CD3; CH2 FES
For B4, the EC50 with Human CD3ε was determined as 532 nM; in the test with Monkey CD3, 630 nM; with Human BCMA it was 15.3 nM.
